# Results reported in article PMC9360328, “Tenuous Transcriptional Threshold of Human Sex Determination. I. SRY and Swyer Syndrome at the Edge of Ambiguity”.
# Target: SRY HMG box WT (Homo sapiens, UniProt Q05066 56-141)
# Test: FRET titration; 15 C, 25 nM DNA; FRET titration: 10 mM potassium phosphate, 10 mM Tris-HCl, 140 mM KCl, 1 mM EDTA, 1 mM DTT, pH 8.4, 15 C, 25 nM DNA; PGE: 10 nM DNA, 20 nM protein, 0.5x TBE, 4
# Conditions: protein: recombinant; label: 5'-6-FAM (hexanyl linker) on upper strand; 5'-TAMRA (hexanyl linker) on lower strand; blunt
# Chain of SRY HMG box WT (Q05066 56-141): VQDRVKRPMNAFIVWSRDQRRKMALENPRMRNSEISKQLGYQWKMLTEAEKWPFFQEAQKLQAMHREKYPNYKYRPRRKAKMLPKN
binder,measurement,value
"15-bp consensus SRY site, FRET-labeled (dsDNA) DNA 1: TCGGTGATTGTTCAG DNA 2: CTGAACAATCACCGA",Kd,10 ± 3 nM
